Reference: publication doi:10.1101/2021.12.09.472013 (bioRxiv, 2021)

B1: SS-torsinA^WT-EGFP (natural protein, UniProt O14656 21-332, looked up)
chain: VEPISLGLALAGVLTGYIYPRLYCLFAECCGQKRSLSREALQKDLDDNLFGQHLAKKIILNAVFGFINNPKPKKPLTLSLHGWTGTGKNFVSKIIAENIYEGGLNSDYVHLFVATLHFPHASNITLYKDQLQLWIRGNVSACARSIFIFDEMDKMHAGLIDAIKPFLDYYDLVDGVSYQKAMFIFLSNAGAERITDVALDFWRSGKQREDIKLKDIEHALSVSVFNNKNSGFWHSSLIDRNLIDYFVPFLPLEYKHLKMCIRVEMQSRGYEIDEDIVSRVAEEMTFFPKEERVFSDKGCKTVFTKLDYYYDD
B2: SS-EGFP-torsinA^WT (natural protein, UniProt O14656 21-332, looked up)
chain: B1 chain
B3: SS-EGFP-torsinA^ΔNTD (natural protein, UniProt O14656 21-332, looked up)
chain: VEPISCLFAECCGQKRSLSREALQKDLDDNLFGQHLAKKIILNAVFGFINNPKPKKPLTLSLHGWTGTGKNFVSKIIAENIYEGGLNSDYVHLFVATLHFPHASNITLYKDQLQLWIRGNVSACARSIFIFDEMDKMHAGLIDAIKPFLDYYDLVDGVSYQKAMFIFLSNAGAERITDVALDFWRSGKQREDIKLKDIEHALSVSVFNNKNSGFWHSSLIDRNLIDYFVPFLPLEYKHLKMCIRVEMQSRGYEIDEDIVSRVAEEMTFFPKEERVFSDKGCKTVFTKLDYYYDD
B4: SS-EGFP-torsinA^50-332 (domain or fragment, UniProt O14656 50-332, looked up)
chain: CGQKRSLSREALQKDLDDNLFGQHLAKKIILNAVFGFINNPKPKKPLTLSLHGWTGTGKNFVSKIIAENIYEGGLNSDYVHLFVATLHFPHASNITLYKDQLQLWIRGNVSACARSIFIFDEMDKMHAGLIDAIKPFLDYYDLVDGVSYQKAMFIFLSNAGAERITDVALDFWRSGKQREDIKLKDIEHALSVSVFNNKNSGFWHSSLIDRNLIDYFVPFLPLEYKHLKMCIRVEMQSRGYEIDEDIVSRVAEEMTFFPKEERVFSDKGCKTVFTKLDYYYDD

Target: the molecule itself
Test: fluorescence fluctuation spectroscopy

Protein	normalized brightness b	stoichiometry N
B1	> 3	–
B2	–	≥ 3
B3	~13	–
B4	~8	–
